Measured values published in US20230357420A1 (VILLARIS THERAPEUTICS, published 2023).

T1: Human CD122 His tagged (human, UniProt P14784 27-240)
T1 construct: also called hCD122; monomeric antigen; not shown: His tag
T1 sequence: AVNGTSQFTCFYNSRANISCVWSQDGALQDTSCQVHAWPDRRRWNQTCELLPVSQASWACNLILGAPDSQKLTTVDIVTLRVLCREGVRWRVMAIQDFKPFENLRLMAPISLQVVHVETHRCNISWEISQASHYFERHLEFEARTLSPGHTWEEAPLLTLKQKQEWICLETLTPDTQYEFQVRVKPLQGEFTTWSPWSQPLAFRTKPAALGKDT

T2: Human CILP2 protein (human, UniProt Q8IUL8 21-1156, limits assumed)
T2 construct: also called cartilage intermediate layer protein 2
T2 sequence (looked up): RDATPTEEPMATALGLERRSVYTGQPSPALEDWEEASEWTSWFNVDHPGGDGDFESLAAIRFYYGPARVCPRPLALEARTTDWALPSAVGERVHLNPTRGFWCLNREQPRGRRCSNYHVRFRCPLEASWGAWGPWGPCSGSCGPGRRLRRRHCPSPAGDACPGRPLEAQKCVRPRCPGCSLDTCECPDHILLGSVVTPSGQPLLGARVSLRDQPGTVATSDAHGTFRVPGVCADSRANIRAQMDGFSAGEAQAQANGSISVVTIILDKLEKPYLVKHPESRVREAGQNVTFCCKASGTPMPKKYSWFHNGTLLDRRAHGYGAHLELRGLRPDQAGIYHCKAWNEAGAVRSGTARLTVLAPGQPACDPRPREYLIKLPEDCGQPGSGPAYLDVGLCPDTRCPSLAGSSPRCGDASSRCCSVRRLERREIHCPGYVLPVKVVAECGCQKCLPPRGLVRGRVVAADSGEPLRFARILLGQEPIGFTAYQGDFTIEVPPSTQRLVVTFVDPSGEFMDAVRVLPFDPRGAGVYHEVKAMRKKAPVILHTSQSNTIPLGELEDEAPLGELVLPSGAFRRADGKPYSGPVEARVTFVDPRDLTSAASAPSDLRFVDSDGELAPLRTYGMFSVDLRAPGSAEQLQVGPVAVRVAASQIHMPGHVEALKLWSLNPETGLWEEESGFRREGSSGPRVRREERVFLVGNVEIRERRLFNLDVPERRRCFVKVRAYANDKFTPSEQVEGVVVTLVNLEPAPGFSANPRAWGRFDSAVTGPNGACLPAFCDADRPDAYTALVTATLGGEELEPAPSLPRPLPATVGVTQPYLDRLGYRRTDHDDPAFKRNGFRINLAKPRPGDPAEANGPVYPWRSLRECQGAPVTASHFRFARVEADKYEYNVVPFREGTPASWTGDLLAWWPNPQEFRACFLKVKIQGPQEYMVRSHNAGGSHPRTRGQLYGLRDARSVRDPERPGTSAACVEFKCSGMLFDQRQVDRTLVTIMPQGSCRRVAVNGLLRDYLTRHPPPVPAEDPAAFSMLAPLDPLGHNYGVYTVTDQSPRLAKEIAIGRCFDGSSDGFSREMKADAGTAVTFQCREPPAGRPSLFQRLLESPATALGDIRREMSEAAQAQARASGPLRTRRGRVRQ

T3: Rhesus CD122 His tag (rhesus monkey, UniProt Q38J85 27-240 (cynomolgus entry))
T3 construct: also called rhCD122; cynomolgus and/or rhesus monkey CD122 His tag; not shown: His tag
T3 sequence: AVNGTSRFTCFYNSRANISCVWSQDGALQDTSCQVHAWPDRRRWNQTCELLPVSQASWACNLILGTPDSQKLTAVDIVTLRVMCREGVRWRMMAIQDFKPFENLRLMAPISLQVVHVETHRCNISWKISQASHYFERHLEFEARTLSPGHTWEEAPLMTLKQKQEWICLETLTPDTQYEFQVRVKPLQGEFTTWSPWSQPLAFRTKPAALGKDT


Assays:
Human CD122 His tagged [1] = biological target: T1, Human CD122 His tagged; experiment: Biacore, Fab affinity and kinetics on hCD122
Human CILP2 protein = biological target: T2, Human CILP2 protein; experiment: BIACORE SPR, Fab at 62.5, 125, 250, 500 and 1000 nM on human CILP2 protein; Rmax
Human neudesin protein = biological target: T4, Human neudesin protein (human, UniProt Q9UMX5 32-172); experiment: BIACORE SPR, Fab at 62.5, 125, 250, 500 and 1000 nM on human neudesin protein; Rmax
T4 construct: also called NENF

Rhesus CD122 His tag = biological target: T3, Rhesus CD122 His tag; experiment: Biacore SPR, Fab
Human CD122 His tagged [2] = biological target: T1, Human CD122 His tagged; experiment: Biacore SPR, Fab

T4 sequence (Q9UMX5 32-172 limits assumed): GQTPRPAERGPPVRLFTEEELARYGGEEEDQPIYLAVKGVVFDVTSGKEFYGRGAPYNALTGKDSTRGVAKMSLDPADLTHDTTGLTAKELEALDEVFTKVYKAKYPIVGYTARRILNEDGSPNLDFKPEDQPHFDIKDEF

| Kd (Human CD122 His tagged [1]) | koff (Human CD122 His tagged [1]) | kon (Human CD122 His tagged [1]) | binding result (Human CILP2 protein) | binding result (Human neudesin protein) | Kd (Rhesus CD122 His tag) | Kd (Human CD122 His tagged [2]) | Binder |
| --- | --- | --- | --- | --- | --- | --- | --- |
| 11.5 nM | 0.0039 s⁻¹ | 340000 M⁻¹ s⁻¹ | no binding (tested: 1000 nM) | no binding (tested: 1000 nM) | 8.55 nM | 11.5 nM | FAB18 (Fab, V domains shown, 06F11-V optimization variant; also called Fab version of MAB18) VH: EVQLLESGGGLVQPGGSLRLSCAASGFSVTSYGVHWIRQAPGKGLEWLGVIWSGGSTDYNAAFISRLTISKDNSKNTVYFQMNSLRAEDTAVYYCARAGDYNYDGFAYWGQGTLVTVSS VL: DIQMTQSPSSLSASVGDRVTITCQASSSVSFMYWYQQRPGKAPRLLIYDTSNLASGVPSRFSGSGSGTSYTFTISSLQPEDIATYYCQQWSTYPLTFGQGTKVEIK |
|  |  |  |  |  | 3.25 nM | 5.37 nM | FAB13 (Fab, V domains shown, 06F11-V optimization variant) VH: EVQLLESGGGLVQPGGSLRLSCAASGFSVTSYGVHWIRQAPGKGLEWLGVIWSGGSTDYNAAFISRLTISKDNSKNTVYFQMNSLRAEDTAVYYCARAGDANYDGFAYWGQGTLVTVSS VL: DIQMTQSPSSLSASVGDRVTITCQASSSVSFMYWYQQRPGKAPRLLIYDTSNLASGVPSRFSGSGSGTSYTFTISSLQPEDIATYYCQQWDTYPLTFGGGTKVEIK |
|  |  |  |  |  | 30.7 nM | 41.2 nM | FAB08 (Fab, V domains shown, 06F11-V optimization variant) VH: not shown VL: DIQMTQSPSSLSASVGDRVTITCQASQSVSFLYWYQQRPGKAPRLLIYDTSNLASGVPSRFSGSGSGTSYTFTISSLQPEDIATYYCQQWSTYPLTFGQGTKVEIK |
|  |  |  |  |  | 20.6 nM | 38.6 nM | FAB03 (Fab, V domains shown, 06F11-V optimization variant) VH: not shown VL: DIQMTQSPSSLSASVGDRVTITCQASSSVSFMYWYQQRPGKAPRLLIYDTSNLASGVPSRFSGSGSGTSYTFTISSLQPEDIATYYCQQWSTYPLTFGQGTKVEIK |
|  |  |  |  |  | 15.9 nM | 17.7 nM | FAB11 (Fab, V domains shown, 06F11-V optimization variant) VH: EVQLLESGGGLVQPGGSLRLSCAASGFTVTSYAVHWVRQAPGKGLEWLGVIWSGGSTDYNAAFISRLTISKDNSKNTVYFQMNSLRAEDTAVYYCARAGDYNYDGFAYWGQGTLVTVSS VL: DIQMTQSPSSLSASVGDRVTITCQASQSVSFLYWYQQRPGKAPRLLIYDTSNLASGVPSRFSGSGSGTSYTFTISSLQPEDIATYYCQQWSTYPLTFGQGTKVEIK |
|  |  |  |  |  | 9.26 nM | 13.8 nM | FAB04 (Fab, V domains shown, 06F11-V optimization variant) VH: EVQLLESGGGLVQPGGSLRLSCAASGFTVTSYAVHWVRQAPGKGLEWLGVIWSGGSTDYNAAFISRLTISKDNSKNTVYFQMNSLRAEDTAVYYCARAGDANYDGFAYWGQGTLVTVSS VL: DIQMTQSPSSLSASVGDRVTITCQASSSVSFMYWYQQRPGKAPRLLIYDTSNLASGVPSRFSGSGSGTSYTFTISSLQPEDIATYYCQQWDTYPLTFGGGTKVEIK |
|  |  |  |  |  | 14.4 nM | 33.6 nM | FAB01 (Fab, V domains shown, 06F11-V optimization variant) VH: not shown VL: DIQMTQSPSSLSASVGDRVTITCQASSSVSFMYWYQQRPGKAPRLLIYDTSNLASGVPSRFSGSGSGTSYTFTISSLQPEDIATYYCQQWDTYPLTFGGGTKVEIK |
|  |  |  |  |  | 16.3 nM | 30.1 nM | FAB07 (Fab, V domains shown, 06F11-V optimization variant) VH: not shown VL: DIQMTQSPSSLSASVGDRVTITCQASSSVSFMYWYQQRPGKAPRLLIYDTSNLASGVPSRFSGSGSGTSYTFTISSLQPEDIATYYCQQWDTYPLTFGGGTKVEIK |
|  |  |  |  |  | 16.7 nM |  | FAB10 (Fab, V domains shown, 06F11-V optimization variant) VH: EVQLLESGGGLVQPGGSLRLSCAASGFTVTSYAVHWVRQAPGKGLEWLGVIWSGGSTDYNAAFISRLTISKDNSKNTVYFQMNSLRAEDTAVYYCARAGDYNYDGFAYWGQGTLVTVSS VL: DIQMTQSPSSLSASVGDRVTITCQASSSVSFMYWYQQRPGKAPRLLIYDTSNLASGVPSRFSGSGSGTSYTFTISSLQPEDIATYYCQQWDTYPLTFGGGTKVEIK |
| 10.2 nM | 0.0058 s⁻¹ | 570000 M⁻¹ s⁻¹ | no binding (tested: 1000 nM) | no binding (tested: 1000 nM) | 8.86 nM | 10.2 nM | FAB05 (Fab, V domains shown, 06F11-V optimization variant; also called Fab version of MAB05) VH: EVQLLESGGGLVQPGGSLRLSCAASGFTVTSYAVHWVRQAPGKGLEWLGVIWSGGSTDYNAAFISRLTISKDNSKNTVYFQMNSLRAEDTAVYYCARAGDANYDGFAYWGQGTLVTVSS VL: DIQMTQSPSSLSASVGDRVTITCQASQSVSFLYWYQQRPGKAPRLLIYDTSNLASGVPSRFSGSGSGTSYTFTISSLQPEDIATYYCQQWSTYPLTFGQGTKVEIK |
|  |  |  |  |  | 19.5 nM | 21.8 nM | FAB12 (Fab, V domains shown, 06F11-V optimization variant) VH: EVQLLESGGGLVQPGGSLRLSCAASGFTVTSYAVHWVRQAPGKGLEWLGVIWSGGSTDYNAAFISRLTISKDNSKNTVYFQMNSLRAEDTAVYYCARAGDYNYDGFAYWGQGTLVTVSS VL: DIQMTQSPSSLSASVGDRVTITCQASSSVSFMYWYQQRPGKAPRLLIYDTSNLASGVPSRFSGSGSGTSYTFTISSLQPEDIATYYCQQWSTYPLTFGQGTKVEIK |
|  |  |  |  |  | 36.5 nM | 72.5 nM | FAB09 (Fab, V domains shown, 06F11-V optimization variant) VH: not shown VL: DIQMTQSPSSLSASVGDRVTITCQASSSVSFMYWYQQRPGKAPRLLIYDTSNLASGVPSRFSGSGSGTSYTFTISSLQPEDIATYYCQQWSTYPLTFGQGTKVEIK |
|  |  |  |  |  | 22.5 nM | 50.6 nM | FAB02 (Fab, V domains shown, 06F11-V optimization variant) VH: not shown VL: DIQMTQSPSSLSASVGDRVTITCQASQSVSFLYWYQQRPGKAPRLLIYDTSNLASGVPSRFSGSGSGTSYTFTISSLQPEDIATYYCQQWSTYPLTFGQGTKVEIK |
|  |  |  |  |  | 5.04 nM | 8.56 nM | FAB16 (Fab, V domains shown, 06F11-V optimization variant) VH: EVQLLESGGGLVQPGGSLRLSCAASGFSVTSYGVHWIRQAPGKGLEWLGVIWSGGSTDYNAAFISRLTISKDNSKNTVYFQMNSLRAEDTAVYYCARAGDYNYDGFAYWGQGTLVTVSS VL: DIQMTQSPSSLSASVGDRVTITCQASSSVSFMYWYQQRPGKAPRLLIYDTSNLASGVPSRFSGSGSGTSYTFTISSLQPEDIATYYCQQWDTYPLTFGGGTKVEIK |
| 8 nM | 0.0044 s⁻¹ | 540000 M⁻¹ s⁻¹ | no binding (tested: 1000 nM) | no binding (tested: 1000 nM) | 9.78 nM | 8.04 nM | FAB06 (Fab, V domains shown, 06F11-V optimization variant; also called Fab version of MAB06) VH: EVQLLESGGGLVQPGGSLRLSCAASGFTVTSYAVHWVRQAPGKGLEWLGVIWSGGSTDYNAAFISRLTISKDNSKNTVYFQMNSLRAEDTAVYYCARAGDANYDGFAYWGQGTLVTVSS VL: DIQMTQSPSSLSASVGDRVTITCQASSSVSFMYWYQQRPGKAPRLLIYDTSNLASGVPSRFSGSGSGTSYTFTISSLQPEDIATYYCQQWSTYPLTFGQGTKVEIK |
